The target of the assay is Shiga toxin type 2 (Stx2) (Escherichia coli) (UniProt P09385). Kind of assay: cell-based or functional assay.

Substance monoclonal antibody 11E10 gave a percent neutralization of cytotoxicity for Vero cells of 65%.

The values above are taken from patent publication US20110318357A1.
